The values that follow come from article PMC11167000, “Molecular mechanism of BMP signal control by Twisted gastrulation” (Nature Communications, 2024).

B1: human CHRDL2 (A25–T429) (natural protein)
chain: ETGARARPDMFCLFHGKRYSPGESWHPYLEPQGLMYCLRCTCSEGAHVSCYRLHCPPVHCPQPVTEPQQCCPKCVEPHTPSGLRAPPKSCQHNGTMYQHGEIFSAHELFPSRLPNQCVLCSCTEGQIYCGLTTCPEPGCPAPLPLPDSCCQACKDEASEQSDEEDSVQSLHGVRHPQDPCSSDAGRKRGPGTPAPTGLSAPLSFIPRHFRPKGAGSTTVKIVLKEKHKKACVHGGKTYSHGEVWHPAFRAFGPLPCILCTCEDGRQDCQRVTCPTEYPCRHPEKVAGKCCKICPEDKADPGHSEISSTRCPKAPGRVLVHTSVSPSPDNLRRFALEHEASDLVEIYLWKLVKGIFHLTQIKKVRKQDFQKEAQHFRLLAGPHEGHWNVFLAQTLELKVTASPDKVTKT
modifications: Asn-linked glycan (predicted at Asn 114)
notes: residues of the vector between the secretion signal and CHRDL2; Chordin-like protein 2 (CHRDL2), human, UniProt Q6WN34, residues A25–T429; also called Chordin superfamily member CHRDL2; source: expressed and purified from dialyzed media using IMAC followed by SEC as the full-length TWSG1
B2: human BMP7 (ligand, UniProt P18075 293-431, looked up)
chain: STGSKQRSQNRSKTPKNQEALRMANVAENSSSDQRQACKKHELYVSFRDLGWQDWIIAPEGYAAYYCEGECAFPLNSYMNATNHAIVQTLVHFINPETVPKPCCAPTQLNAISVLYFDDSSNVILKKYRNMVVRACGCH
notes: Bone morphogenetic protein 7 (BMP7), human; source: bought: Miltenyi Biotec
B5: human BMP2 (ligand, UniProt P12643 283-396, looked up)
chain: QAKHKQRKRLKSSCKRHPLYVDFSDVGWNDWIVAPPGYHAFYCHGECPFPLADHLNSTNHAIVQTLVNSVNSKIPKACCVPTELSAISMLYLDENEKVVLKNYQDMVVEGCGCR
notes: Bone morphogenetic protein 2 (BMP2), human; it speaks of BMP ligands in general as dimeric
B6: human Growth Differentiation Factor 5 (GDF5, A382–R501) (ligand)
chain: MAPLATRQGKRPSKNLKARCSRKALHVNFKDMGWDDWIIAPLEYEAFHCEGLCEFPLRSHLEPTNHAVIQTLMNSMDPESTPPTCCVPTRLSPISILFIDSANNVVYKQYEDMVVESCGCR
notes: N-terminal methionine of the expression construct; Growth differentiation factor 5 (GDF5), human, UniProt P43026, residues A382–R501, no tags; Disulfide-linked dimer
B7: human Twisted gastrulation (TWSG1), full-length glycosylated TWSG1 (Cys26–Phe223) (natural protein)
chain: ETGCNKALCASDVSKCLIQELCQCRPGEGNCSCCKECMLCLGALWDECCDCVGMCNPRNYSDTPPTSKSTVEELHEPIPSLFRALTEGDTQLNWNIVSFPVAEELSHHENLVSFLETVNQPHHQNVSVPSNNVHAPYSSDKEHMCTVVYFDDCMSIHQCKISCESMGASKYRWFHNACCECIGPECIDYGSKTVKCMNCMF
modifications: Asn-linked glycans (predicted at Asn 52, 81 and 147); fully glycosylated for binding, cellular and SEC-MALS assays; cut down to one N-acetylglucosamine with endoglycosidase F1 for crystallization
notes: residues of the vector between the secretion signal and TWSG1; Twisted gastrulation (TWSG1), human, UniProt Q9GZX9, residues C26–F223; Monomer-dimer equilibrium in solution; also called full-length TWSG1; wild-type TWSG1; source: HEK-293T, transient transfection, secreted, purified (IMAC, SEC)

Series [1] concerns the molecule itself. The experiment in a line: SEC-MALS; Superdex 200 HR 10/30, 150 mM NaCl, 10 mM HEPES pH 7.5, 2 mM CaCl2, 21 °C; proteins at 2 mg/ml, 0.1 ml per injection.
The next series has as its target TWSG1 Ile40Ala (human, UniProt Q9GZX9 26-223, Ile40Ala, Asn-linked glycans (predicted Asn52, Asn81, Asn147; fully glycosylated, HEK-type expression without kifunensine); disulfide-rich. Parent construct inferred: the methods state that the C26-F223 constru). The experiment in a line: SPR; as a1, BMP7 immobilized at higher level (7372 RU). As to conditions: both partners purified.

The target in series [2] is B7. The experiment in a line: SPR; equilibrium binding, Biacore T200, 25 °C; BMP2, BMP7, GDF5 or CHRDL2 amine-coupled to a CM5 chip, TWSG1 proteins as analytes; 0.15 M NaCl, 20 mM HEPES pH 7.5, 2 mM CaCl2, 0.005% Tween 20; 1:1 binding isotherm. As to conditions: both partners purified.
The target of the series “human BMP7” is B2. Described as above. To be noted: both partners purified.
In series [3] the target is B6. The series is described as above. As to conditions: both partners purified.
The target of the series “human BMP2” is B5. The series is described as above. To be noted: both partners purified.
Series [4] addresses B1. Described as above. To be noted: both partners purified.
Series [5] concerns the molecule itself. Nature of the series: crystal structure; TWSG1 NTD and GDF5 mixed 1:1 mol:mol, crystallized with CaCl2; 1.96 Å.
Series [6] concerns the target B1. The experiment in a line: SEC-MALS; Superdex 200 HR 10/30, 150 mM NaCl, 10 mM HEPES pH 7.5, 2 mM CaCl2, 21 °C; proteins at 2 mg/ml, 0.1 ml per injection. As to conditions: both partners purified.

Take B1: the binding result in series [1] is given as “binds”.
As to B2, the Kd with TWSG1 Ile40Ala is 454000 nM. Moreover, in series [2], the binding result is “binds”.

B3: human TWSG1 N-terminal domain (TWSG1 NTD, C26–S83) (domain or fragment)
chain: ETGCNKALCASDVSKCLIQELCQCRPGEGNCSCCKECMLCLGALWDECCDCVGMCNPRNYS
notes: residues of the vector between the secretion signal and TWSG1 NTD; Twisted gastrulation (TWSG1), human, N-terminal domain, residues C26–S83; Treated with endoglycosidase F1 in the purification described; The structural description gives the NTD as Cys26–Arg80; source: expressed and purified from dialyzed media similar to full-length TWSG1 (IMAC, HRV 3C cleavage, IMAC, SEC); not shown: mono Venus …
In the case of B3, the Kd amounted to 94 nM with human BMP7, 380 nM in [3] and 1010 nM with human BMP2.

B4: human TWSG1 C-terminal domain (TWSG1 CTD, T85–F223) (domain or fragment)
chain: ETGTPPTSKSTVEELHEPIPSLFRALTEGDTQLNWNIVSFPVAEELSHHENLVSFLETVNQPHHQNVSVPSNNVHAPYSSDKEHMCTVVYFDDCMSIHQCKISCESMGASKYRWFHNACCECIGPECIDYGSKTVKCMNCMF
notes: residues of the vector between the secretion signal and the TWSG1 domain; Twisted gastrulation (TWSG1), human, C-terminal domain, residues T85–F223; The methods sentence on this construct says 'followed by ETG, TWSG1 NTD' where CTD must be meant; The structural description gives the CTD as Pro87–Phe223; source: expressed and purified from dialyzed media using IMAC followed by SEC as the …
In the case of B4, the “fold weaker than the TWSG1 NTD” value (with human BMP7; in series [3]; in the series with human BMP2) was about 100 fold in each case. For the same molecule, the dissociation constant (Kd) with human CHRDL2 (A25–T429) [4] is 460 nM.
As for B5, the binding result in [2] was “binds”.
For B6, the binding result in series [5] and in series [2] was “binds” each time.
Regarding B7, in the series with human CHRDL2 (A25–T429) [6], the binding result is “binds”. Also, the “stoichiometry N” value in series [1] was found to be 2.
